The record followed here is paper PMC5999394, “Design principles of a microtubule polymerase” (eLife, 2018).

Positions count from the first letter of the chain named. Names may count otherwise.

The target of data set [1] is wild-type yeast microtubules (polymerized wild-type yeast αβ-tubulin) (S. cerevisiae) (UniProt P09733). As to the kind of experiment: TIRF microscopy, fluorescence intensity of the Stu2-eGFP spot on the growing microtubule end; end intensity dynamic assay; 5-300 nM Stu2-eGFP (titration, hyperbolic fit; apparent) or 200 nM variant; 0.8 μM wild-type yeast tubulin; 30°C.
Data set [2] addresses T1, plus-end blocked yeast αβ-tubulin (β:T175R,V179R) (S. cerevisiae, UniProt P09733 1-447; P02557 1-457, T175R | V179R).
T1 construct: Tub1p (yeast α-tubulin), S. cerevisiae; Tub2p (yeast β-tubulin), S. cerevisiae; also called LR1
As to the kind of experiment: TIRF microscopy of Stu2-eGFP on stabilized microtubules; GTPγS-stabilized wild-type yeast microtubules held on the cover slip by His-Tag antibody; 100 nM Stu2-eGFP flowed in without or with 1 μM unpolymerized tubulin (wild type or mutant; mixed on ice for 10 min); imaging buffer; 30°C. The conditions noted are these: both partners purified.

Data set [3] concerns the target T2, minus-end blocked yeast αβ-tubulin (α:T350E) (S. cerevisiae, UniProt P09733 1-447; P02557 1-457, T350E).
T2 construct: Tub1p (yeast α-tubulin), S. cerevisiae; Tub2p (yeast β-tubulin), S. cerevisiae; also called T350E α-tubulin
The description is as above. The settings on record: both partners purified.

In data set [4] the target is T3, wild-type yeast microtubules (polymerized wild-type yeast αβ-tubulin) (S. cerevisiae, UniProt P09733 1-447; P02557 1-457).
T3 construct: Tub1p (yeast α-tubulin), S. cerevisiae; Tub2p (yeast β-tubulin), S. cerevisiae; Polymer of m2; also called microtubule lattice; microtubule end
As to the kind of experiment: single-molecule TIRF microscopy, residence time on the growing microtubule end; 5 nM Stu2-eGFP variant with 1-1.5 µM unlabeled wild-type yeast tubulin; 100 ms streaming; one-phase exponential fit of the dwell times; 30°C. The conditions noted are these: both partners purified.

The target in data set [5] is T3, wild-type yeast microtubules …. As to the kind of experiment: TIRF microscopy, fluorescence intensity of the Stu2-eGFP spot on the growing microtubule end; end intensity dynamic assay; 5-300 nM Stu2-eGFP (titration, hyperbolic fit; apparent) or 200 nM variant; 0.8 μM wild-type yeast tubulin; 30°C. The conditions noted are these: both partners purified.
Data set [6] deals with T4, β:T238A yeast microtubules (polymerized Tub2:T238A αβ-tubulin) (S. cerevisiae, UniProt P09733 1-447; P02557 1-457, T238A).
T4 construct: Tub1p (yeast α-tubulin), S. cerevisiae; Tub2p (yeast β-tubulin), S. cerevisiae; also called β:T238A microtubules; mutant microtubules
The experiment in a line: TIRF microscopy of Stu2-eGFP on dynamic microtubules (kymographs); axoneme-seeded unlabeled dynamic yeast microtubules on the cover slip; Stu2-eGFP variant (100-200 nM) with 0.5-0.8 μM unpolymerized yeast tubulin in imaging buffer (1X PEM, 50 µM GTP, 0.1 mg/mL BSA, antifade); 30°C. The settings on record: both partners purified.

Data set [7] concerns the molecule itself. The experiment in a line: single-molecule photobleaching (TIRF); fluorescence intensity trace of stationary Stu2-eGFP; steps of photobleaching counted.
Data set [8] concerns the target T3, wild-type yeast microtubules …. The experiment in a line: TIRF microscopy of Stu2-eGFP on dynamic microtubules (kymographs); axoneme-seeded unlabeled dynamic yeast microtubules on the cover slip; Stu2-eGFP variant (100-200 nM) with 0.5-0.8 μM unpolymerized yeast tubulin in imaging buffer (1X PEM, 50 µM GTP, 0.1 mg/mL BSA, antifade); 30°C. The conditions noted are these: both partners purified.

The target in data set [9] is T1, plus-end blocked yeast αβ-tubulin …. The experiment in a line: AUC; sedimentation velocity, 50,000 rpm, 20°C, absorbance at 229 nm; RB100 (25 mM Tris pH 7.5, 100 mM NaCl, 1 mM MgCl2, 1 mM EGTA) with 20 µM GTP; 0.3 µM tubulin with 0.1-3 µM TOG1-tail; isotherms fitted with a 1:1 effective-particle model. The conditions noted are these: both partners purified.
Data set [10] addresses T5, lateral-interface mutant yeast αβ-tubulin (α:H284A) (S. cerevisiae, UniProt P09733 1-447; P02557 1-457, H284A).
T5 construct: Tub1p (yeast α-tubulin), S. cerevisiae; Tub2p (yeast β-tubulin), S. cerevisiae; also called Tub1-H284A; Tub1:H284A
The experiment in a line: SEC; gel filtration on Shodex KW-803 in BRB80 (80 mM PIPES pH 6.9, 1 mM MgCl2, 1 mM EGTA) with 50 μM GTP; 1 μM TOG1-tail and 1 μM tubulin, alone or mixed, equilibrated on ice for 20 min. The settings on record: both partners purified.

For data set [11], the target named is T6, wild-type yeast αβ-tubulin (unpolymerized) (S. cerevisiae, UniProt P09733 1-447; P02557 1-457).
T6 construct: Tub1p (yeast α-tubulin), S. cerevisiae; Tub2p (yeast β-tubulin), S. cerevisiae; also called WT tubulin; unpolymerized tubulin
The data set is described as above. The conditions noted are these: both partners purified.

Data set [12] deals with T7, side-blocked yeast αβ-tubulin (β:F281A) (S. cerevisiae, UniProt P09733 1-447; P02557 1-457, F281A).
T7 construct: Tub1p (yeast α-tubulin), S. cerevisiae; Tub2p (yeast β-tubulin), S. cerevisiae; also called Tub2:F281A
Described as above. The conditions noted are these: both partners purified.

Consider “Stu2(TOG2-TOG2)-eGFP (from UniProt P46675 1-888)”, for which the relative amount of polymerase on the microtubule end (wild type = one) (relative to wild type) in [1] came to 1.

B1: wild-type Stu2-eGFP (Stu2 residues 1–888, full-length; dimer) (natural protein, S. cerevisiae, UniProt P46675 1-888, looked up)
chain: MSGEEEVDYTTLPLEERLTYKLWKARLEAYKELNQLFRNSVGDISRDDNIQIYWRDPTLFAQYITDSNVVAQEQAIVALNSLIDAFASSSLKNAHNITLISTWTPLLVEKGLTSSRATTKTQSMSCILSLCGLDTSITQSVELVIPFFEKKLPKLIAAAANCVYELMAAFGLTNVNVQTFLPELLKHVPQLAGHGDRNVRSQTMNLIVEIYKVTGNNSDLLEEILFKKLKPIQVKDLHKLFAKVGDEPSSSKMLFEWEKRELEKKRSQEEEARKRKSILSNDEGEYQIDKDGDTLMGMETDMPPSKQQSGVQIDTFSMLPEETILDKLPKDFQERITSSKWKDRVEALEEFWDSVLSQTKKLKSTSQNYSNLLGIYGHIIQKDANIQAVALAAQSVELICDKLKTPGFSKDYVSLVFTPLLDRTKEKKPSVIEAIRKALLTICKYYDPLASSGRNEDMLKDILEHMKHKTPQIRMECTQLFNASMKEEKDGYSTLQRYLKDEVVPIVIQIVNDTQPAIRTIGFESFAILIKIFGMNTFVKTLEHLDNLKRKKIEETVKTLPNFSIASGSTHSTIETNKQTGPMENKFLLKKSSVLPSKRVASSPLRNDNKSKVNPIGSVASASKPSMVAANNKSRVLLTSKSLATPKNVVANSTDKNEKLIEEYKYRLQKLQNDEMIWTKERQSLLEKMNNTENYKIEMIKENEMLREQLKEAQSKLNEKNIQLRSKEIDVNKLSDRVLSLENELRNMEIELDRNKKRNDTNLQSMGTISSYSIPSSTVSSNYGVKSLSSALPFKEEEDVRRKEDVNYERRSSESIGDLPHRVNSLNIRPYRKNGTGVSSVSDDLDIDFNDSFASEESYKRAAAVTSTLKARIEKMKAKSRREGTTRT
notes: Stu2 (Stu2p), S. cerevisiae, residues 1-888; also called Stu2p; WT; source: E. coli Arctic Express, purified (His60 Superflow, Strep-Tactin); not shown: eGFP, C-terminal, kept
Turning to B1, the binding result in data set [2], in data set [3] and in data set [6] was “binds” each time. For the same molecule, the “characteristic residence time on the growing microtubule end” value (“characteristic residence time” below) in [4] amounted to 2.2 s. Moreover, the EC50 in data set [5] was 19 nM. Further, the “stoichiometry N” value in data set [7] is 2.

B2: Stu2(TOG1-TOG2*)-eGFP (R519A) (natural protein, S. cerevisiae, UniProt P46675 1-888, looked up)
chain: B1 chain with R519A
notes: Stu2, S. cerevisiae, fully dimeric (888) background; also called TOG2* (R519A); source: E. coli Arctic Express, purified (His60 Superflow, Strep-Tactin); not shown: eGFP, C-terminal, kept
Turning to B2, the “characteristic residence time” value in data set [4] is 4 s. The “relative amount of polymerase on the microtubule end (wild type = one)” value in data set [5] was 0.5 relative to wild type.

B3: 'doubly dead' Stu2(TOG1*-TOG2*)-eGFP (natural protein, S. cerevisiae, UniProt P46675 1-888, looked up)
chain: B1 chain with R200A, R519A
notes: Stu2, S. cerevisiae, fully dimeric (888) background; also called double dead Stu2; source: E. coli Arctic Express, purified (His60 Superflow, Strep-Tactin); not shown: eGFP, C-terminal, kept
For B3, in [8], the binding result was “binds”.

B4: Stu2(TOG1*-TOG2)-eGFP (R200A) (natural protein, S. cerevisiae, UniProt P46675 1-888, looked up)
chain: B1 chain with R200A
notes: Stu2, S. cerevisiae, fully dimeric (888) background; also called TOG1* (R200A); source: E. coli Arctic Express, purified (His60 Superflow, Strep-Tactin); not shown: eGFP, C-terminal, kept
On to B4, for which the “characteristic residence time” value in [4] worked out at 1.7 s.

B5: Stu2 TOG1 domain ('TOG1-tail', 1–317) (domain or fragment, S. cerevisiae, UniProt P46675 1-317, looked up)
chain: MSGEEEVDYTTLPLEERLTYKLWKARLEAYKELNQLFRNSVGDISRDDNIQIYWRDPTLFAQYITDSNVVAQEQAIVALNSLIDAFASSSLKNAHNITLISTWTPLLVEKGLTSSRATTKTQSMSCILSLCGLDTSITQSVELVIPFFEKKLPKLIAAAANCVYELMAAFGLTNVNVQTFLPELLKHVPQLAGHGDRNVRSQTMNLIVEIYKVTGNNSDLLEEILFKKLKPIQVKDLHKLFAKVGDEPSSSKMLFEWEKRELEKKRSQEEEARKRKSILSNDEGEYQIDKDGDTLMGMETDMPPSKQQSGVQIDTFS
notes: Stu2 (Stu2p), S. cerevisiae, TOG1 domain with tail, residues 1-317; source: expression and purification previously described (Ayaz et al., 2012, 2014)
As to B5, the binding result in data set [9], in data set [10], in data set [11] and in data set [12] was “binds” each time.

B6: Stu2(TOG2-TOG2*)-eGFP (other)
chain: MSGEEEVDYTTEETILDKLPKDFQERITSSKWKDRVEALEEFWDSVLSQTKKLKSTSQNYSNLLGIYGHIIQKDANIQAVALAAQSVELICDKLKTPGFSKDYVSLVFTPLLDRTKEKKPSVIEAIRKALLTICKYYDPLASSGRNEDMLKDILEHMKHKTPQIRMECTQLFNASMKEEKDGYSTLQRYLKDEVVPIVIQIVNDTQPAIRTIGFESFAILIKIFGMNTFVKTLEHLDNLKRKKIEETVKTDEPSSSKMLFEWEKRELEKKRSQEEEARKRKSILSNDEGEYQIDKDGDTLMGMETDMPPSKQQSGVQIDTFSMLPEETILDKLPKDFQERITSSKWKDRVEALEEFWDSVLSQTKKLKSTSQNYSNLLGIYGHIIQKDANIQAVALAAQSVELICDKLKTPGFSKDYVSLVFTPLLDRTKEKKPSVIEAIRKALLTICKYYDPLASSGRNEDMLKDILEHMKHKTPQIRMECTQLFNASMKEEKDGYSTLQRYLKDEVVPIVIQIVNDTQPAIATIGFESFAILIKIFGMNTFVKTLEHLDNLKRKKIEETVKTLPNFSIASGSTHSTIETNKQTGPMENKFLLKKSSVLPSKRVASSPLRNDNKSKVNPIGSVASASKPSMVAANNKSRVLLTSKSLATPKNVVANSTDKNEKLIEEYKYRLQKLQNDEMIWTKERQSLLEKMNNTENYKIEMIKENEMLREQLKEAQSKLNEKNIQLRSKEIDVNKLSDRVLSLENELRNMEIELDRNKKRNDTNLQSMGTISSYSIPSSTVSSNYGVKSLSSALPFKEEEDVRRKEDVNYERRSSESIGDLPHRVNSLNIRPYRKNGTGVSSVSDDLDIDFNDSFASEESYKRAAAVTSTLKARIEKMKAKSRREGTTRT
Take B6: the “characteristic residence time” value in [4] worked out at 3.9 s. Also, in data set [5], the “relative amount of polymerase on the microtubule end (wild type = one)” value is 0.5 relative to wild type.
